Measured values as given in patent US20210364527A1.

Biological target: polypeptide with a terminal leucine residue (rest of sequence not given)
Experiment: single-molecule dwell time analysis; panel Leu; filtered 0.00s<=dur<=20.00s and magnitude above baseline > 15.0

Question: Synechococcus elongatus ClpS2 was tested. Which mean pulse duration (dashed line of the distribution) did it give?
Answer: 0.35 s
